Experimental findings from paper PMC8692065 (Cell Reports, 2021) are described below.

One test has as its target SARS-CoV-2 RBD-mFc (SARS-CoV-2, original strain, UniProt P0DTC2). Description: flow cytometry on cells. On the technique in general: Flow cytometry measures light scatter and fluorescence of single cells or particles in a stream.
A further test concerns the target SARS-CoV-2 S2-mFc (SARS-CoV-2, original strain, UniProt P0DTC2). Description: flow cytometry on cells.
The target in the next test is SARS-CoV-2 Nucleocapsid (SARS-CoV-2, UniProt P0DTC9). Put plainly: ELISA. Background: In an ELISA, binding on a coated surface is turned into a signal by an enzyme label.

B1: mAb-76, displayed on nPnP hybridoma cells (single-ORF linker format) (antibody, V domains shown)
VH: QVQLQQWGAGLLKPSETLSRTCGVYGGSFSGFYWSWIRQPPGKGLEWIGEINQSGTTSYNPSLMSRVTVSVDTSKNQFSLKLNSVTAADTAVYYCARRRSSWFEAGVHWYFDLWGRGTLVTVSS
VL: DIVMTQSPLSLAVTPGEPASISCRSSQSLLHSNGYNYLDWYLQKPGQSPQVLIYLGSNRASGVPDRFSGSGSGTDYTLKISRVEAEDAGVYYCMQALQTPTFGRGTKLEIK
In the case of B1, the binding result with SARS-CoV-2 RBD-mFc was “binds”.

B2: mAb-78, displayed on nPnP hybridoma cells (single-ORF linker format) (antibody, V domains shown)
VH: QVQLVESGGGVVQPGRSLTLSCAVSGFSFNNYGMHWVRQAPGKGLEWVSFISYEGSKRYYMDSLKGRFTISRDSSKNEVYLQMNRLTPEDTAVYYCAKSRAYFHFSAGRGVFDYWGRGALVTVSS
VL: DMQMTQSPSSLSASVGDRVTITCQASQDIGTYLNWYRHKPGEAPKLLIYHASNLETGVPSRFSGSGSGTDFSFTISSLQPEDIGTYYCQQYDDLPVFAFGPGTKVDLK
For the molecule B2, in the test with SARS-CoV-2 S2-mFc, the binding result is on record as “binds”.

B3: mAb-111, displayed on nPnP hybridoma cells (single-ORF linker format) (antibody, V domains shown)
VH: DVQLLESGGGLVQPGGSRRLSCAASGFTFSNHAMSWVRQAPGKGLEWVSSISGSGGSTDYGDSVKGRFIVSRDNPRNTLYLDMNNLRTQDTAVYYCAKDRTFFTDSMLESWGEGTLVTVSS
VL: DIQMTQSPSSLSASVGDRVTITCRASQTISKSLNWYQQRPGKAPKLLIYAASNLQSGFPSRFSGSGSGTDFTLTISSVQPGDFATYYCQQTYSTPVTFGQGTTLEIK
In the case of B3, the binding result with SARS-CoV-2 S2-mFc was “binds”.

B4: mAb-80, displayed on nPnP hybridoma cells (single-ORF linker format) (antibody, V domains shown)
VH: EVQLVESGGGLVQPGGSLRLSCAASGFTFSSYWMHWVRQAPGKGLVWVSRINSDERNTRYADSVRGRFTISRDNAKNTLSLQMNSLRVDDTAVYYCARGGAAISYLYYYYGMDVWGQGTTVTVSS
VL: not shown
With B4, in the test with SARS-CoV-2 S2-mFc, the binding result is reported as “binds”.

B5: mAb-56, displayed on nPnP hybridoma cells (single-ORF linker format) (antibody, V domains shown)
VH: EVQLVESGGGLIQPGGSMRLSCAASGFSVGTTYMSWVRQAPGKGLEWVSVVFKGHDTYYRKSVKGRFTISRDSSKNTLYLQMSDLRAEDSAVYFCTNMVLTYDSGWYWLDYWGQGIRVTVSS
VL: DIQMTQSPSPLSAFVGDMVTITCRASQSINNFLNWYQQKPGKAPRLLIYGASTLETGVPTRFSGSGSGTDFTFTISSLQPEDIATYYCQQYDNLPLTFGGGTKVEIK
In the case of B5, in the test with SARS-CoV-2 RBD-mFc, the binding result is on record as “binds”.

B6: mAb-115, displayed on nPnP hybridoma cells (single-ORF linker format) (antibody, V domains shown)
VH: EVQVVESGGGLVKPGGSLRLSCSVSGTTLADAWLNWVRQAPGKGLEWVGRIKSKPDVGTTEYAAPVKGRFIISRDDSGNSFFLQMTDLKPEDTAVYYCAARWEMQLWLRLFDFWGPGALVTVSS
VL: EIVVTQSPATLSVSAGERANLSCRTSQSISRDLAWYQQKPGQAPRLLIYGVFSRATGIPARFSGSGSGTEFTLTISSLQSEDFAVYYCQQYNKWWTFGQGTKVEIK
On to B6, for which, in the test with SARS-CoV-2 S2-mFc, the binding result is “binds”.

B7: CR3022, secreted by nPnP hybridoma cells (single-ORF linker format), supernatant (antibody, V domains shown)
VH: QMQLVQSGTEVKKPGESLKISCKGSGYGFITYWIGWVRQMPGKGLEWMGIIYPGDSETRYSPSFQGQVTISADKSINTAYLQWSSLKASDTAIYYCAGGSGISTPMDVWGQGTTVTVSS
VL: not shown
On to B7, for which the binding result with SARS-CoV-2 Nucleocapsid is reported as “no binding”.
